Data published in the DeepSol protein solubility set.

Test: soluble on expression in E. coli; label from the status in PepcDB or PDB records

Sequence	soluble on expression in E. coli
MLYKGCLMKSDVQLNLRAKESQRALIDAAAEILHKSRTDFILETACQAAEKVILDRRVFNFNDEQYEEFINLLDAPVADDPVIEKLLARKPQWDV	not soluble
MFEKVIKLWRDTFPKSEHKLMSIEYVAAIEEFNEYFPGYAAMNDSNYSKLQHFFRSLHPIGCIKPFRFHYSSAFALENSLDDYLLKNAQFKRDGLAGEWAIHIFADHNDHIIEKYRMYKKKRLEKLERTFEERKKKAER	not soluble
MRPPSELLDIISKLAELDPLVRKGAVRQLSSKQEELSDNELNTYVIERLISGCASARAAVRLGYTTALGTILMTKAGESWELDKILAVADKKMDLAEKTVGTGHAIGHYLILVTYCQTRKLKEAEATKIVEHSKKIRDFAPSLAFSQINLLCSLATKTKESVFQKSVSPAIEMNLEGLSSQFTPENVYLALRLRNSHSTVVAKYAKFVKKDGSIQFSDDQYPKILAALKRCDFATVQVFLPLLIKASVESSGFDKMYLKVLEPWALSSNETKVFDRILTIVTQFFDFGGDVKSIVVVFTKEVLNRMETATRGKGQFRLMSKKVDDFAAFIQSKLSELRDEEAYTALKELEKCGNVDKACGTGLTTALLSNLGKKQISVWIKENLSNQDEVRKIVSAFSNWDEKSRITVLSALLSQKATETSQSVVTSIIDSLFYVKTRAGEFASIQISEKNEEVLRQLVVAVQGEEEVKKAEKSIGKSKLRKKSLQILWYVTRLWSRIAASSVDSAAYDSDSSEILAIAKNEADGNNSLVFVDLLLSILSREQKFHRTPTAFAFVHAIPTLESKDLCHIVETAMMSEAELAGNDDEDMEDEEGMPFDESEIPSGNGDDEASDSDDDDEEEDDDEGNEAVDQELLDKLNAALGDAAPRDSSSDVEMDDLDDEAMQKMDERLAAAFKAIAPKAGKDKKRSAKSVEALKMKIADLLLIAISSKELAEQSKIKLVVPLLKWAKVDAKTHDKVAQKVLELVNIVVKMKFTDVSEKDALQLLKQVLDEAQTTTNILIIDTVARCVTFVLKISSRDGKSMSAGVKTEFQSLFENYLKNVEGKVPSNFVIQPIADLPLLFVDQLGMLIDAGFDEENRIFKRTEILGAIAMIFTKQVLQETNIKGAIIKKIGKLAAAYFQKVVDSDKSELKPRLFGTVLQLILKVTVCIQNDEKHVDALRESLEYVIQKMFEGEVFIQLKKINPTCHHIIGKSIAGAFTSIKKSLDIEN	not soluble
MGSDKIHHHHHHMTAGGLHNGSGGMESARHCRELVERWLADGSFDARLPEVVRLRGVLQPEQYHAEGDAWTHTMLAMEAVPDDADPRVFWGVLLHDIGKAETTAFIKGRWRSWGHAEAGAGEVSAIMTRLGFPHLAADVTWLVKHHTFHFSWNLTPGARLSPKQRRFMEHPLFPLLLEVCDADAAGSRGGSDKGVKIGQLADMYADVTKGWADS	not soluble
MGSDKIHHHHHHMAVNRFRLENGKEELALYQIQLLKDQSHNENEEDKVSSSSFRQRILGNLLQPPNERPELPSGLYVLGLTGISGSGKSSVAQRLKNLGAYIIDSDHLGHRAYAPGGPAYQPVVEAFGTDILHKDGTINRKVLGSRVFGNKKQMKILTDIVWPVIAKLAREEMDVAVAKGKTLCVIDAAMLLEAGWQSMVHEVWTVVIPETEAVRRIVERDGLSEAAAQSRLQSQMSGQQLVEQSNVVLSTLWESHVTQSQVEKAWNLLQKRLPKAYQTRN	soluble
CLAEGTRIFDPVTGTTHRIEDVVDGRKPIHVVAAAKDGTLHARPVVSWFDQGTRDVIGLRIAGGAILWATPDHKVLTEYGWRAAGELRKGDRVAQPRRFDGFGDSAPIPARVQALADALDDKFLHDMLAEELRYSVIREVLPTRRARTFDLEVEELHTLVAEGVVVHN	soluble
MRTRSQVWAQKAYEKVREAAKGEGRGEYRDMALKLPVLVRQAGLSQALAFVDSRGKEAHKALGNDLAQVLGYRDLRELAEAAREAELLQYLRLTREVLAAAEWFKRFAQALIEE	soluble
MGHHHHHHSHMTQDRPLLAVQEALKKCFPVVEEQQGLWQSALRDCQPLLSSLSNLAEQLQAAQNLRFEDVPALRAFPDLKERLRRKQLVAGDIVLDKLGERLAILLKVRDMVSSHVERVFQIYEQHADTVGIDAVLQPSAVSPSVADMLEWLQDIERHYRKSYLKRKYLLSSIQWGDLANIQALPKAWDRISKDEHQDLVQDILLNVSFFLEE	not soluble
MGSDKIHHHHHHMAKFDNHPTVRWWREQSTNNPKTSTVALNSDSLRTLCLDAGADDVGFVEIYRPAIADQHAEILAVFPPTKTLISFVCCMNRESVRTPARSIANLEFHANYDHADEVARNLVKAFAQIGVRALNPSVAFPMEMDRYPDKKAWIISHKPVAVEAGLGHIGIHRNVIHPKFGNFIALGTVLIDTEVTEYAHPINYNPCIECKLCVAACPVGAIGADGSFSFSACYTHNYREFMGGFTDWTETIADSKSASDYRKKVSASESASMWQSLSFKPNYKAAYCIAACPAGEDVIAPFLSDRKAFIKDVVKPLQDKTETIYVVPGSDAENYVVKHFPNKTVKLVSSGIRPQSIQGFLFGLPLLFQRNQSEGLSAIYHFTFTGSESRRATVTIQNKMVRVQEGHLGKANISVTADSKTWLGFLGKEQNLIWALLRCKIRVSGSLKLLQAFGKCFPTCNIH	not soluble
MSLKIAITGASGFVGSHLSSQFGGSHTLLPLGRRELSDPTKLSSLLEGVDWIINLAGAPIIAKWSESYKKVLYSSRIETTRSLLLALKECPTKPSLFTSTSAIGIYDNQGTYAEGDLALAQDFLGKLAKDWEEEALKAQDLGIRTVVFRFGVVLGKGGGMMEKLRLPFSLGLGGVIGDGKQKFSWIHLHDIAKAMEFAWSTPSLSGIYNLTAPSPTTNEAFTKLYGSLIHRPTLLPVPLWALQILFGEGAKVLSDGQAAIPERLLQAGFEFEYPTLEKALKEIISEGHHHHHH	soluble
MGSDKIHHHHHHMTEGWDALDAELEQWAAAGLRLPLWWRDDDAVTPTDALTRLEAMATRLDLPVHLAVIPKAAEDALAQHVSQSSHLIPVVHGWAHVNHANPDKKTCEFPSTRPVDEALTDAEQGVERLKHLFGARLQPMFVPPWNRISPAMLPWLAGLGFAAISTYGPRKRTQAASGLVQINTHIDPIDWKGGRGLMPEAQILQKLVANLQARRSGQQDNAEPLGLLTHHLVHTDEVWEFCDTLLRRLLEGPAHPWRFNERIN	not soluble
TIPKWWKEAVFYQVYPRSFKDTNGDGIGDINGIIEKLDYLKALGIDAIWINPHYDSPNTDNGYDIRDYRKIMKEYGTMEDFDRLISEMKKRNMRLMIDVVINHTSDQNEWFVKSKSSKDNPYRGYYFWKDAKEGQAPNNYPSFFGGSAWQKDEKTNQYYLHYFAKQQPDLNWDNPKVRQDLYAMLRFWLDKGVSGLRFDTVATYSKIPDFPNLTQQQLKNFAAEYTKGPNIHRYVNEMNKEVLSHYDIATAGEIFGVPLDQSIKFFDRRRDELNIAFTFDLIRLDRDSDQRWRRKDWKLSQFRQIIDNVDRTAGEYGWNAFFLDNHDNPRAVSHFGDDRPQWREPSAKALATLTLTQRATPFIYQGSELGMTNYPFKAIDEFDDIEVKGFWHDYVETGKVKADEFLQNVRLTSRDNSRTPFQWDGSKNAGFTSGKPWFKVNPNYQEINAVSQVTQPDSVFNYYRQLIKIRHDIPALTYGTYTDLDPANDSVYAYTRSLGAEKYLVVVNFKEQMMRYKLPDNLSIEKVIIDSNSKNVVKKNDSLLELKPWQSGVYKLNQ	soluble
RKGHFSRCPKQYKHYCIKGRCRFVVAEQTPSCVCDEGYIGARCERVDLFY	soluble
MGSDKIHHHHHHMNNTRSAYEKIIKDLQGVGFSDYEAKTYIALLLTPNATAYEISKEAGIPKANCYSVLEALRKNGAVQAVSENPVKYVAVDPNRYFNQMVELTQLRCEDLKESLKNIGHLPQEDLVWSLNDAAAVGLHIEKMIGSARDTIRIKAADTTLEPHLPSLKKAARRGVKVLIILFGEDVRPFELGKNCKVYLHEGNGIRVGISHKLITVTRDYKEALVAEVGRDAYGSYTENKPIVTLADSLLRHEIYFAEIFSCFGDEIQEKFGPALVKLRESYLPADQADALKVFLETADPARLAGKATAA	not soluble
MPRTVTHNPDSPNNDDVLAASEKWDACKPPYTSAHMKICVAAAKIILAASGVARCSKYEKENYLRIDFSKAGKVTFYAEFPKKMGLKGKKLGEWPELVIQLAREKALGMADGGLRAESVHAALEMYRDDPKPK	not soluble
GKDDDNVETGAFDPSKPVAISDFTPKEGGAYQKLLIYGENFGTDVSKVKVKIGGKDAIVINVKSTYVYCFVPSGAFSGEIEITVGEGENAVTTTASTTFSYEKKMVVGTLCGYRNNRDDQGWRDGPFDGPEGVKCCGFSDNGRLAFDPLNKDHLYICYDGHKAIQLIDLKNRMLSSPLNINTIPTNRIRSIAFNKKIEGYADEAEYMIVAIDYDGKGDESPSVYIIKRNADGTFDDRSDIQLIAAYKQCNGATIHPINGELYFNSYEKGQVFRLDLVDYFKTIKNGGSWDPIVKNNPNTFKQLFTIADPSWEFQIFIHPTGKYAYFGVINNHYFMRSDYDEIKKEFITPYNFVGGYKQSGYRDDVGTEARMNNPCQGVFVKNPDYTGEEEYDFYFVDRLNFCVRKVTPEGIVSTYAGRGASTSLADGNQWGTDDGDLREVARFRDVSGLVYDDVKEMFYVHDQVGHTIRTISMEQEENVAGDENIPEDESTVESNE	soluble
MSLTDDEISSTETAPDIATQPPLFVLGVGAARLDAGRLAELLDAVAGAANLAIMLLLRDRQLLDEAHLRALLGKQATLLSVPFDGEKLQPGRFYLPPADTVVTLEEGRIRLRALPNGESDHGLIDSFFVSMAHDQDGNVIGLIMGRFDGDGTLGTAAIKECGGLALAVDDASLHGLDLRSASNPAAITDHILPLPQLTARIAAHMQRHHGFGHPGPLGVRNGSESDKLSQIAAILRNTTGHDFHGYKRATFLRRVQQRMQVAQVEMLEQYLHILRYRFDEPLQLFNDLLIGVTKFFRDRRGFELLEQQVIPRLFKGKHTDDSMRVWVLGCSTGEEAYSLAMLLREHAETLDSAPRIQIFASDIDGRALATARVGRYASSIVGEVALERLRRWFVKEGDTYVVNKELRELCVFSQHSIVKDPPFSRLDLVSCRNLLIYLDAELQNRVIPIFHFAIRPGGYLFLGNAENVSLQAQLFTPVDRSVRVFQREGHHHHHH	not soluble
MGSDKIHHHHHHMAEERVEPKPIDLGEYKFGFHDDVEPVLSTGKGLNEGVIRELSAAKGEPEWMLEFRLKSYETFKKMPMQTWGADLSEIDFDDLIYYQKPSDKPARSWDDVPEKIKETFERIGIPEAERAYLAGASAQYESEVVYHNMKEEFQKLGIIFTDTDSALKEYPDLFKQYFAKLVPPTDNKLAALNSAVWSGGTFIYVPKGVKVDIPLQTYFRINNENIGQFERTLIIVDEGASVYYVEGCTAPTYSSNSLHAAIVEIFALDGAYMRYTTIQNWSDNVYNLVTKRAKAQKDATVEWIDGNLGAKTTMKYPSVYLDGEGARGTMLSIAFANAGQHQDTGAKMIHNAPHTSSSIVSKSIAKGGGKVDYRGQVTFNKNSKKSVSHIECDTIIMDDLSASDTIPFNEIHNSQVALEHEAKVSKISEEQLYYLMSRGLSESEATEMIVMGFVEPFTKELPMEYAVELNRLISYEMEGSVG	not soluble
MGSDKIHHHHHHMRITEMADRVSRTGIGKLAGASHQLHTLNTNERDNSAMAETSIEWTDATWNPVAGCTILTAGCTNCYAMRMAARLEAMGTEKYQGLTRKTGGRAKWTGKVVTDPKSLAIPATWSKPRRVFVNSMSDLFHVDVPADFIRQVWTVMEETPRHTYQILTKRPEVMASVLTRGEFPVLSNVWLGTSVEDSRVLSRLDDLRRVPASIRFVSLEPLIGSVAGANLTDINWAIVGGESGPGARDMDPRWVDEIEAMCRRSGTAFFFKQWGGRNKKATGRTLNGRTYDEMPAAI	not soluble
MMKDKHGAMNAERRGMGEQRLAERMAELERRLKEVEAENIVLKELAYQSAKRYEQLKQLAKENDELRRQLLQSPWSEKTDKMDEDERPDSWFFRTLRQENAIMPHPERNEK	not soluble
